Columns and labels:
[1] = Thermal stability assessment by nanoDSC; assay type: physicochemical; settings: 1 mg/mL in PBS, scan 25-100° C. at 1° C./min, major transition
How it was run: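 CTGF-specific lipocalin muteins at 1 mg/mL in PBS scanned from 25 to 100° C at 1° C/min by capillary nano-DSC. Where several transitions occur, the Tm of the major unfolding event is reported, along with onset temperature. Some muteins were expressed in E. coli, others in CHO cells.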

[2] = biological target: T1, Human CTGF with a human IgG1 Fc Tag (Homo sapiens, UniProt P29279, H83D); assay: SPR epitope analysis (simultaneous binding); settings: SPR, mixed and injected simultaneously at 750 nM or 1000 nM
T1 construct: purchased Creative Biomart
T1 sequence (P29279 with tags, fused parts or gaps H83D): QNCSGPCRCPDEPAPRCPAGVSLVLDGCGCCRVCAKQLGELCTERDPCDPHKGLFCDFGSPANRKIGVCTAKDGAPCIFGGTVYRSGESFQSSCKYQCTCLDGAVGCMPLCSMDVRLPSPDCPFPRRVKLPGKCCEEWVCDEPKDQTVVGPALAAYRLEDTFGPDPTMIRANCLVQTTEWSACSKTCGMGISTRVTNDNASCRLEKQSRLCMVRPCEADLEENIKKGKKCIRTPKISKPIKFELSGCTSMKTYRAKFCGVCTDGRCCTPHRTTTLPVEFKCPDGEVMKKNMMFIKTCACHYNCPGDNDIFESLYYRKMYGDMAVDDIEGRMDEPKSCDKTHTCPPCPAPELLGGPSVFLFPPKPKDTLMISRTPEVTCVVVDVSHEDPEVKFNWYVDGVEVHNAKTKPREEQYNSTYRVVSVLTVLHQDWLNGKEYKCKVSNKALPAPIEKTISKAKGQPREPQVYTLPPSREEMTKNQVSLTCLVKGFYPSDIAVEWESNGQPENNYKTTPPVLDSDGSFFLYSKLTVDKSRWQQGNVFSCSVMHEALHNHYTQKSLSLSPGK
Protocol: Surface plasmon resonance (SPR) was used to analyze the epitopes and determine simultaneous binding of different lipocalin muteins. Human CTGF with a human IgG1 Fc Tag was directly immobilized to a CM5 Chip (Creative Biomart, 10 μg/mL in 10 mM sodium acetate pH 4.5) until an immobilization level of 470-630 resonance units was achieved. The reference channel was activated/deactivated. […] As control, single lipocalin muteins were injected and the resulting signal of single and mixtures was compared at the end of the injection. The chip was regenerated with 3 M MgCl2 and Glycine-HCl pH1.5 for each 60 s at a flowrate of 15 μL/min.
“Yes” means simultaneous binding is possible, “no” stands for same or overlapping epitope, “n.t.” stands for not tested.

[3] = biological target: T2, CTGF (Homo sapiens, UniProt P29279); assay: Specificity ELISA (CCN proteins), human CTGF; assay type: binding; settings: coated 1 μg/ml, muteins from 1000 nM
T2 sequence (P29279 27-349): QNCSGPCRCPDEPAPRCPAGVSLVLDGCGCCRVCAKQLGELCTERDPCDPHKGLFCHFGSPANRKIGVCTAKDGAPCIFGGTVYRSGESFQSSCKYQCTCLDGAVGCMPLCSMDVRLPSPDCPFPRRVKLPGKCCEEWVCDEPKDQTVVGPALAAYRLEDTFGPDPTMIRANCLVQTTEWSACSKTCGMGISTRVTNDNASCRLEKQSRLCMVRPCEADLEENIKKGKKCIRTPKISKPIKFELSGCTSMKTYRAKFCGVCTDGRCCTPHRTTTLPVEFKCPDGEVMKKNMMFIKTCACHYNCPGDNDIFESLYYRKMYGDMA
Protocol: (§1) Binding of muteins to closely related proteins of CTGF was tested by an ELISA assay. In detail, a 384-well plate suitable for fluorescence measurements (Greiner FLUOTRAC™ 600, black flat bottom, high-binding) was coated with 20 μl of human CTGF or the other members of the CCN protein family at a concentration of 1 μg/ml in PBS over night at 4° C. After washing with PBS with 0.05% Tween 20, wells were blocked with 100 μl blocking buffer containing 0.1% Tween 20 and 2% BSA (PBS-T/BSA) for 1 h at room temperature. 20 μl of serially diluted muteins starting at 1000 nM were incubated in PBS-T/BSA for 1 h at room temperature (RT).
(§2) The residual supernatants were discarded and 20 μl HRP-labeled anti-NGAL or anti-Strep-Tag antibody was added at a predetermined optimal concentration in PBS-T/BSA and incubated for 1 h at RT. After washing, 20 μl fluorogenic HRP substrate (QuantaBlu, Thermo) was added to each well, and the reaction was allowed to proceed for 2 to 60 minutes. The fluorescence intensity of every well on the plate was read using a fluorescence microplate reader (Tecan). When the signal for human CTGF approached saturation, the cross reactivity to the other proteins was assessed.

[4] = biological target: T3, huNOV (Homo sapiens, UniProt P48745); assay: Specificity ELISA (CCN proteins), huNOV; assay type: binding; settings: coated 1 μg/ml; assessed when human CTGF signal approached saturation
T3 sequence (P48745 32-357): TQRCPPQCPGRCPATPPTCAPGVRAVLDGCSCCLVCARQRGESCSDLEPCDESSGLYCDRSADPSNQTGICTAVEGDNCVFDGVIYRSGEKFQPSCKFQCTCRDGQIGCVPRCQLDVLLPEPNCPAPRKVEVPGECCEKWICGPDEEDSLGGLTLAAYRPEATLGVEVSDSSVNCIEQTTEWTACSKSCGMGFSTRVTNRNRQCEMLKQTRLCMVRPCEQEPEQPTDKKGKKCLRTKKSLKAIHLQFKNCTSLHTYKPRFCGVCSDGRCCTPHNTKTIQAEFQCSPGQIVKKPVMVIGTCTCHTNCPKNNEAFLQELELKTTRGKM
Protocol: as §1, §2

[5] = biological target: T4, huWISP-1 (Homo sapiens, UniProt O95388); assay: Specificity ELISA (CCN proteins), huWISP-1; assay type: binding; settings: coated 1 μg/ml; assessed when human CTGF signal approached saturation
T4 sequence (O95388 23-367): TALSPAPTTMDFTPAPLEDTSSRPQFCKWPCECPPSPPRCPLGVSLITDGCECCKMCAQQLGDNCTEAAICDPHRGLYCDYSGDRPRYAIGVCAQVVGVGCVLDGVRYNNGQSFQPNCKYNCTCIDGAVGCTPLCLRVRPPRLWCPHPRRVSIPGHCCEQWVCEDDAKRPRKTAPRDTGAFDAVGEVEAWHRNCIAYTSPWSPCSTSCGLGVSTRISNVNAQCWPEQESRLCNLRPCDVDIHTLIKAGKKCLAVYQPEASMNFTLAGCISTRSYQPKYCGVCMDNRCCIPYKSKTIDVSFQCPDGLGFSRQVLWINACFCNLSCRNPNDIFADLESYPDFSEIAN
Protocol: as §1, §2

[6] = biological target: T5, huWISP-2 (Homo sapiens, UniProt O76076); assay: Specificity ELISA (CCN proteins), huWISP-2; assay type: binding; settings: coated 1 μg/ml; assessed when human CTGF signal approached saturation
T5 sequence (O76076 24-250): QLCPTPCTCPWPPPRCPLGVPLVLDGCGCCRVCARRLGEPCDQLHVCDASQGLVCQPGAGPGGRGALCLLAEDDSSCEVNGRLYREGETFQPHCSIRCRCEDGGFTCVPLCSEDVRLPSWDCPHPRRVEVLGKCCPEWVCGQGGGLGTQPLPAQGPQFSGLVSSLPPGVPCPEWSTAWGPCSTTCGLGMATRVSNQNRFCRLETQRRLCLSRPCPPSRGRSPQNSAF
Protocol: as §1, §2

Molecule	TM [1]	Simultaneous binding with SEQ ID NO: 7 [2]	Simultaneous binding with SEQ ID NO: 9 [2]	Simultaneous binding with SEQ ID NO: 25 [2]	Simultaneous binding with SEQ ID NO: 29 [2]	Simultaneous binding with SEQ ID NO: 60 and 61 (control antibody) [2]	ELISA binding to HUMAN CTGF [3]	ELISA binding to huNOV [4]	ELISA binding to huWISP-1 [5]	ELISA binding to huWISP-2 [6]	Simultaneous binding with SEQ ID NO: 3 [2]
SEQ ID NO: 7: parent CTGF-binding hNGAL lipocalin mutein (protein, lipocalin mutein) QDSTSDLIPAPPLSKVPLQQNFQDNQFHGKWYVVGLAGNYGLRTDKRPSKMFATIYELKEDKSYDVTSVRFEQERCHYTIRTFVPGSQPGEFTTGSIKSRPGQTSSLVRVVSTNYNQHAMVFFKSVIQNREYFAITLYGRTKELTSELKENFIRFSKSLGLPENHIVFPVPIDQCIDG	65 °C	no	no	yes	yes	no	Binding	No binding	No binding	No binding	
SEQ ID NO: 3: parent CTGF-binding hNGAL lipocalin mutein (protein, lipocalin mutein) QDSTSDLIPAPPLSKVPLQQNFQDNQFHGKWYVVGRAGNNRLREDKDPPKMWATIYELKEDKSYNVTHVHFMTKKCRYIIDTFVPGSQPGEFTLGAIKSGPGMTSPLVRIVSTNYNQHAMVFFKWVNQNREWFTITLYGRTKELTSELKENFIRFSKSLGLPENHIVFPVPIDQCIDG	58 °C					yes	Binding	No binding	No binding	No binding	no

From patent US20240228562A1, “NOVEL LIPOCALIN MUTEINS SPECIFIC FOR CONNECTIVE TISSUE GROWTH FACTOR (CTGF)” (PIERIS PHARMACEUTICALS GMBH, priority 2021, published 2024)
